{"source": "patent US20180319855A1", "about": "“GENETICALLY MUTATED AEQUORIN-BASED BIOSENSORS WITH EXTRA SENSITIVITY TO CALCIUM AND IMPROVED BIOLUMINESCENCE INTENSITY” (CENTRE NATIONAL DE LA RECHERCHE SCIENTIFIQUE (CNRS), priority 2015, published 2018)", "molecules": {"B1": {"name": "Redq/QD + AT: aporedquorin mutant Q159D + A179T (SEQ ID NO:23) (protein)", "chain": "MVSKGEEVIKEFMRFKVRMEGSMNGHEFEIEGEGEGRPYEGTQTAKLKVTKGGPLPFAWDILSPQFMYGSKAYVKHPADIPDYKKLSFPEGFKWERVMNFEDGGLVTVTQDSSLQDGTLIYKVKMRGTNFPPDGPVMQKKTMGWEASTERLYPRDGVLKGEIHQALKLKDGGHYLVEFKTIYMAKKPVQLPGYYYVDTKLDITSHNEDYTIVEQYERSEGRHHLFLGHGTGSTGSGSSGTASSEDNNMAVIKEFMRFKVRMEGSMNGHEFEIEGEGEGRPYEGTQTAKLKVTKGGPLPFAWDILSPQFMYGSKAYVKHPADIPDYKKLSFPEGFKWERVMNFEDGGLVTVTQDSSLQDGTLIYKVKMRGTNFPPDGPVMQKKTMGWEASTERLYPRDGVLKGEIHQALKLKDGGHYLVEFKTIYMAKKPVQLPGYYYVDTKLDITSHNEDYTIVEQYERSEGRHHLFLSGFDNPRWIGRHKHMFNFLDVNHNGKISLDEMVYKASDIVINNLGATPEQAKRHKDAVEAFFGGAGMKYGVETDWPAYIEGWKKLATDELEKYAKNEPTLIRIWGDALFDIVDKDQNGAITLDEWKAYTKAAGIIQSSEDCEETFRVCDIDESGDLDVDEMTRQHLGFWYTMDPTCEKLYGGAVP", "modifications": "mutant aequorin"}, "B2": {"name": "E35G: aequorin mutation from random mutagenesis reported by Tsuzuki et al. 2005 (protein)", "chain": "SKLTSDFDNPRWIGRHKHMFNFLDVNHNGKISLDGMVYKASDIVINNLGATPEQAKRHKDAVEAFFGGAGMKYGVETDWPAYIEGWKKLATDELEKYAKNEPTLIRIWGDALFDIVDKDQNGAITLDEWKAYTKAAGIIQSSEDCEETFRVCDIDESGQLDVDEMTRQHLGFWYTMDPACEKLYGGAVP"}, "B3": {"name": "V44A: aequorin mutant, valine 44 replaced by alanine (protein)", "chain": "B2 chain with G35E, V44A"}, "B4": {"name": "Aeq-wt: wild-type aequorin: apoaequorin of Aequorea victoria (SEQ ID NO:1) reconstituted with coelenterazine (protein, listed as Aequorea aequorea)", "chain": "B2 chain with G35E", "modifications": "reconstituted with coelenterazine; SITE (1)..(189) wild-type aequorin"}}, "key": {"[1]": {"experiment": "Thermostability: relative bioluminescence activity after 30 min incubation", "format": "physicochemical", "details": "CLZ-f", "description": "Thermostability of aequorin and redquorin mutant with increased affinity for calcium were compared to wt-aequorin (FIG. 5). The purified photoprotein samples were reconstituted with CLZ-f (as detailed earlier) and let to calibrate at room temperature (20-24° C.) for 20 min before taken the first measurement of total counts using saturating calcium solution (50 mM Tris-HCl, 100 mM CaCl2, pH 7.5). Samples were then incubated at two different temperatures (30 to 40° C.) for 30 min, and let equilibrate at room temperature for 15 minbefore taken the second measurement of total counts in the sample. The relative bioluminescence activity at each temperature was calculated by the ratio 2nd counts (at target T° C.)/1st counts (at initial T° C.) multiplied by 100.\nTable 6 highlights the analysis of thermostability data obtained at two temperatures for aequorin and redquorin mutants, as well as CitA and GA. The values represent the degree of change in luminescence activity compared to wt-aeq, at each temperature. All values are relative to wt-aequorin (at each temperature) and were calculated by dividing the obtained data for each mutant/variant by the data for wt-aeq (as reference). The data were taken from FIG. 5."}, "[2]": {"experiment": "Ca2+ sensitivity curves of reconstituted photoproteins (L/Lmax vs free Ca2+)", "format": "biochemical", "details": "for EC50: read-out: Calcium sensitivity, EC50", "description": "For in vitro reconstitution, the purified and concentrated samples of apoaequorin and redquorin mutant proteins were buffer-exchanged to 50 mM Tris-HCl (pH 7.5), 150 mM NaCl, 10 mM EGTA, 5 mM ß-mercaptoethanol, supplemented with 5 μM CLZ-f or CLZ-native and incubated overnight at 4° C., in the dark. The next day, samples were passed through molecular weight cut-offs (AmiconUitra MWCO, 10K and 50K, from Millipore), then resuspended in Zero-Ca^2+ buffer (30 mM MOPS, 100 mM KCl and 10 mM EGTA, pH 7.2) for calcium affinity, emission decay kinetics and spectral analysis assays. As for in cellulo reconstitution, HEK cells transiently expressing the proteins of apoaequorin and aporedquorin mutants were washed twice with Hank's Balanced Salt Solution (HBSS) and incubated in the dark, with 4 μM of the desired CLZ diluted in OptiMEM I medium (Gibco), for 2-3h at 37° C. and 5% CO2. Cells were washed once and maintained in HBSS at 37° C. for 20 min before the experiment.\nFunctional Analysis of Aequorin Mutants and Fusions Ca^2+ Sensitivity Curves.\nPurified and reconstituted samples with CLZ-f or CLZ-native already buffered-exchanged to zero-calcium buffer ensured to minimize calcium contamination that could interfere with the measurements. Fifteen microliter aliquot of photoprotein samples (concentration range, 50 to 90 ng/μl) was placed in a home-made luminometer and mixed with 300 μl solution containing the desired concentration of free-Ca^2+. The solutions of EGTA-buffered with varying free-Ca^2+ prepared according to the manufacturer instruction for the kit (Molecular Probes, Invitrogen). Integration of the luminescence emission (per second) was measured for 20 seconds (background) before injecting a solution with known [free-Ca^2+] and lasted until stable or decaying signal (at final-phase) was obtained. At this point, 400 μl of a saturating calcium solution (30 mM MOPS, 100 mM CaCl2, pH 7.2) was rapidly injected (less than 30 ms) and light integration continued until all aequorin had been consumed and light intensity had gone back to background signal. Luminescence intensity (L) at different [Ca^2+] was taken as the response peak value in case of decaying signal or as the stable value in case of stable emission. Lmax, was measured by integrating all remaining luminescence signal from that moment (L value) to the end of the experiment. The EC50 values were extracted from a sigmoidal dose-response fit (variable slope) using GraphPad Prism software."}, "endogenous P2Y2 receptor": {"tested_on": "endogenous P2Y2 receptor", "experiment": "Assay of activation of endogenous P2Y2 receptor by ATP in CHO cells stably expressing photoproteins", "format": "cell-based", "details": "CHO cells stably expressing the sensor", "description": "Stably prepared CHO cells were loaded with 5 μM coelenterazine in 130 mM NaCl, 5 mM KCl, 1 mM MgCl2, 2 mM CaCl2, 5 mM NaHCO3, 20 mM N-(2-hydroxyethyl) piperazine-N′-ethanesulfonic acid (HEPES), pH 7.4 for 4 h at ambient temperature.\nTo produce stable CHO cell lines, the cells transfected with GA and Redquorin variant plasmids were seeded on six-well plates and grown in the same medium with addition of Geneticin sulfate (G418) (Gibco, UK) at 1 mg/ml under the same conditions with replacement of the medium by fresh medium every 2 days. After 7-10 days of selection, CHO cells were transferred into a medium without antibiotic. To select clones with the highest bioluminescence activity, one run of limiting dilution was performed. CHO cells after G418 selection were seeded on 96-well plates (approximately 0.5 cells per well) and grown in DMEM/F12 medium supplemented with 10% fetal calf serum at 37° C., 5% CO2 for up to 80-90% confluence. Before the bioluminescence measurements, the plates with monoclones of CHO cells expressing the corresponding photoprotein were duplicated and grown for up to 90-100% confluence. Then, the medium was removed and cells were loaded with coelenterazine, and bioluminescence in each well was measured according to the procedure described earlier. As a result, the CHO cell clones with the highest bioluminescence activity were selected.\nAssay of Activation of Endogenous P2Y2 Receptor in CHO Cells\nThe CHO cell lines stably expressing each photoprotein were used in assay of activation of endogenous P2Y2 receptor by ATP. The day before the measurements, the corresponding cells were seeded on 96-well plates with DMEM/F12 medium supplemented with 10% fetal calf serum and were grown at 37° C. with 5% CO2 for up to 90-100% confluence. Then, the medium was replaced by 100 μl of coelenterazine solution per well (5 μM coelenterazine in 130 mM NaCl, 5 mM KCl, 1 mM MgCl2, 2 mM CaCl2, 5 mM NaHCO3, 20 mM HEPES, pH7.4) and the cells were incubated at 23° C. for 4 h. Emission from photoproteins in the cells was measured using a Mithras LB 940 plate luminometer. The ATP was injected at a given concentration to trigger an intracellular Ca^2+ response in the cells and the measurement started immediately. The bioluminescence was integrated over a time interval of 0.05 s for 30 s."}, "[3]": {"details": "Tsuzuki et al. 2005; cited from earlier work"}, "[4]": {"details": "background art; cited from earlier work"}, "[5]": {"details": "CLZ-f, L/Lmax compared to Aeq-wt"}}, "note": "Changes are numbered by the printed parent chain. Names and notes keep the numbering of the source. Like-named read-outs stand apart in the source and are kept apart here."}
{"molecule": "B1", "values": [{"measurement": "Thermostability, luminescence activity relative to wt-aequorin", "setting": "[1]; 30° C. for 30 min", "value": 1.00}, {"measurement": "Thermostability, luminescence activity relative to wt-aequorin", "setting": "[1]; 40° C. for 30 min", "value": 1.03}, {"measurement": "EC50", "setting": "[2]; CLZ-f, redquorin series, CitA, GA", "value": "252 ± 40", "unit": "nM"}, {"measurement": "Relative intensity at pCa 6.5", "setting": "[2]; CLZ-f, relative to Redq", "value": 58.5}, {"measurement": "Relative intensity at pCa 7.2", "setting": "[2]; CLZ-f, relative to Redq", "value": 48.3}, {"measurement": "EC50", "setting": "[2]; CLZ-native, redquorin series, CitA, GA", "value": "515 ± 20", "unit": "nM"}, {"measurement": "Relative intensity at pCa 6.5", "setting": "[2]; CLZ-native, relative to Redq", "value": 32.1}, {"measurement": "Relative intensity at pCa 7.2", "setting": "[2]; CLZ-native, relative to Redq", "value": 24.5}, {"measurement": "[ATP] DL (detection limit)", "setting": "endogenous P2Y2 receptor", "value": "562 ± 20", "unit": "nM"}, {"measurement": "EC50", "setting": "endogenous P2Y2 receptor; ATP dose-response, read-out: EC50 (half-maximal effective concentration of ATP for P2Y2 activation)", "value": 2000, "unit": "nM"}]}
{"molecule": "B2", "values": [{"measurement": "emission half-life (t½)", "setting": "[3]", "value": 40, "unit": "s"}]}
{"molecule": "B3", "values": [{"measurement": "emission half-life (t½)", "setting": "[3]", "value": 34, "unit": "s"}]}
{"molecule": "B4", "values": [{"measurement": "Thermostability, luminescence activity relative to wt-aequorin", "setting": "[1]; 30° C. for 30 min", "value": 1.00}, {"measurement": "Thermostability, luminescence activity relative to wt-aequorin", "setting": "[1]; 40° C. for 30 min", "value": 1.00}, {"measurement": "affinity of aequorin for calcium", "setting": "[4]", "value": "around 1 μM"}, {"measurement": "Relative intensity at pCa 6.5", "setting": "[2]; [5]", "value": 1}, {"measurement": "Relative intensity at pCa 7.2", "setting": "[2]; [5]", "value": 1}, {"measurement": "EC50", "setting": "[2]; aequorin proteins reconstituted with CLZ-f, sigmoidal curve fit, mean ± SD, n at least 3", "value": "659 ± 23", "unit": "nM"}, {"measurement": "emission half-life (t½)", "setting": "[3]", "value": 0.8, "unit": "s"}]}
